According to patent publication US20200369776A1 (ADAGENE, published 2020):
Numbering of substitutions follows the chain as printed. Names may count otherwise. One block for each binder: values may come before it.

Experiments:
Experiment in all cases: FACS, HEK293F
[1] = target: human CD137 mutant Hu_PW135AA on HEK293F cells (human, UniProt Q07011 18-255)
Method: (§1) Transfected cells were washed in pre-chilled staining buffer (PBS supplemented with 2% FBS), then incubated with 100 nM test antibodies for 1 hr on ice. […] Samples were washed once with staining buffer prior to analysis by flow cytometry.
(§2) To determine the binding regions of the tested antibodies at amino acid residue level, a series of mutations (Table 5) were made at the extracellular domain of human CD137. These CD137 mutation plasmids were used to transfect HEK293F cells.

[2] = target: human CD137 mutant Hu_FN125AA on HEK293F cells (human, UniProt Q07011 18-255)
Method: as §1, §2

[3] = target: human CD137 mutant Hu_GT150AA on HEK293F cells (human, UniProt Q07011 18-255)
Method: as §1, §2

[4] = target: T1, human CD137 mutant Hu_FSS53AAA on HEK293F cells (human, UniProt Q07011 18-255)
T1 chain: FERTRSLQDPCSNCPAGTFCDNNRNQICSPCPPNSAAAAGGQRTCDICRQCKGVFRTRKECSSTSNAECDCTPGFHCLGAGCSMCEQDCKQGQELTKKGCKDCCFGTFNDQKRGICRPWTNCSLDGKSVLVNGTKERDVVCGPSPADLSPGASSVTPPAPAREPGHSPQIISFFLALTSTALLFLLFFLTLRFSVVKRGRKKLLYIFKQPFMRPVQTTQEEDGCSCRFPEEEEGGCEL
Method: as §1, §2

- binding result [1]: binds
- binding result [2]: binds
- binding result [3]: binds
- binding result [4]: binds
B1: reference antibody AC1121 (antibody, V domains shown)
VH: QVQLQQWGAGLLKPSETLSLTCAVYGGSFSGYYWSWIRQSPEKGLEWIGEINHGGYVTYNPSLESRVTISVDTSKNQFSLKLSSVTAADTAVYYCARDYGPGNYDWYFDLWGRGTLVTVSS
VL: EIVLTQSPATLSLSPGERATLSCRASQSVSSYLAWYQQKPGQAPRLLIYDASNRATGIPARFSGSGSGTDFTLTISSLEPEDFAVYYCQQRSNWPPALTFGGGTKVEIK

- binding result [1]: binds
- binding result [3]: binds
B2: AG10058 (antibody, human IgG4 S228P, kappa, V domains shown)
VH: EVQLVESGGGLVQPGGSLRLSCAASGFSLSTSGVGVGWIRQAPGKGLEWLALIDWDDDKYYSPSLKSRLTISRDNSKNTLYLQLNSLRAEDTAVYYCARGGSDTVLGDWFAYWGQGTLVTVSS
VL: DIQLTQSPSSLSASVGDRVTITCRASQSVSPYLAWYQQKPGKAPKLLIYDASSLESGVPSRFSGSGSGTDFTLTISSLQPEDFATYYCQQGYSLWTFGQGTKVEIKR
notes: IgG4 (S241P)

- binding result [1]: binds
- binding result [3]: binds
B3: AG10059 (antibody, human IgG4 S228P, kappa, V domains shown)
VH: EVQLVESGGGLVQPGGSLRLSCAASGYSITSGHYWAWIRQAPGKGLEWVSSISGYGSTTYYADSVKGRFTISRDNSKNTLYLQLNSLRAEDTAVYYCARGGSDAVLGDWFAYWGQGTLVTVSS
VL: B2 VL with S28G, V29I, S30G, P31S, Y32F, S53N, S56T, S93Y
notes: IgG4 (S241P)
